Assay results from patent US20040005550A1, “Methods and compositions useful for targeting activated vitronectin receptor alphavbeta3” (The Scripps Research Institute, priority 1998, published 2004).

How the values were obtained:
[1] = target: T1, αvβ3 expressed in CHO cells (Homo sapiens, UniProt P05106+P06756); assay: Flow cytometry ligand binding to αvβ3-CHO cells; details: for Bmax: arbitrary fluorescence units
T1 construct: cDNAs encoding full-length human αv and β3 were subcloned into pcDNA3 and pCDM8; expressed in transfected cells
Description: Binding of aPB, WOW-1 Fab and FITC-fibrinogen to cells was assessed by flow cytometry. Typically, cells were cultured overnight in low serum medium (e.g., 0.5% fetal bovine serum), resuspended in incubation buffer at 1-1.5×10^7 cells/ml, and 4-6×10^5 cells were incubated with one of these ligands for 30 min at room temperature in a final volume of 50 μl. […] In some experiments, ligand binding and αvβ3 expression were measured simultaneously by incubation of cells with ligands in the presence of biotin-SSA6 (7 μg/ml), a non-function-blocking anti-β3 monoclonal antibody (Abrams, C., Deng, J., Steiner, B., and Shattil, S. J. (1994) J. Biol. Chem. 269, 18781-18788). After 30 min at room temperature, cells were washed and incubated with phycoerythrin-streptavidin (1:25 final dilution; Molecular Probes) for 20 min on ice. In the case of WOW-1 Fab, an Alexa-conjugated anti-(His)6 monoclonal antibody (Accurate Chemical and Scientific Corp., Westbury, N.Y.) was added at this stage (50 μg/ml). Cells were washed and resuspended in 0.5 ml incubation buffer containing 2 μg/ml propidium iodide (Sigma, St. Louis, Mo.). Ligand binding (FL1 channel) was analyzed immediately on the gated subset of live cells (propidium iodide-negative, FL3) that was strongly positive for αvβ3 expression (FL2). Binding isotherms were subjected to non-linear, least squares regression analysis using an equation for one-site binding (Prism 2.0 software; GraphPad Software, San Diego, Calif.). Two-tailed P values for paired samples were obtained by Student's t test.
In order to document and study the significance of affinity modulation of αvβ3, a monovalent reporter ligand was developed analogous to the activation-dependent anti-αIIbβ3 antibody, PAC1 Fab. Preliminary binding studies were conducted with the new antibody, designated WOW-1 Fab, using purified integrins in the presence of 50 μM MnCl2, which activates integrins by a direct effect on the extracellular domain (Bazzoni, G., and Hemler, M. E. (1998) Trends Biochem. Sci. 23, 30-34). […] To determine if WOW-1 Fab reacted preferentially with activated αvβ3 in cells, Fab binding was compared with that of multivalent penton base using CHO cells stably-transfected with human αvβ3 (αvβ3-CHO cells).

[2] = test system: αvβ3-CHO cells; assay: Cell adhesion assay on immobilized penton base; assay type: cell-based
Description: Immulon-2 microtiter wells (Dynex Laboratories, Chantilly, Va.) were coated with unlabeled penton base (1-100 ng/well) overnight at 4° C., followed by blocking with 20 mg/ml BSA. CHO cells stably expressing αvβ3 were labeled with BCECF-AM (Molecular Probes, Eugene, Oreg.), and cell adhesion to the immobilized penton base was quantitated by cytofluorimetry at 485/530 nm (Hato, T., Pampori, N., and Shattil, S. J. (1998) J. Cell Biol. 141(7), 1685-1695).
In order to determine whether changes in receptor affinity affect the adhesive function of αvβ3, the adhesion of αvβ3-CHO cells to immobilized penton base was quantitated. Adhesion was dependent on the coating concentration of penton base and was half-maximal at 30-40 ng/well (FIG. 7). Activation of αvβ3 by AP5 led to a 7-fold leftward shift in the dose-response curve such that half-maximal adhesion now occurred at approximately 5 ng of penton base/well. Treatment of the cells with 1 mM MnCl2 caused an even further shift in the dose-response curve, either because it induced a more profound effect on αvβ3 or it activated additional αv integrins (FIG. 7). […] Thus, affinity modulation of αvβ3 promotes both cell adhesion and post-ligand binding responses, such as cell spreading.

[3] = test system: resting or thrombin-stimulated human platelets; assay: Flow cytometry ligand binding to platelets

T1 sequence (P06756 31-889 limits assumed): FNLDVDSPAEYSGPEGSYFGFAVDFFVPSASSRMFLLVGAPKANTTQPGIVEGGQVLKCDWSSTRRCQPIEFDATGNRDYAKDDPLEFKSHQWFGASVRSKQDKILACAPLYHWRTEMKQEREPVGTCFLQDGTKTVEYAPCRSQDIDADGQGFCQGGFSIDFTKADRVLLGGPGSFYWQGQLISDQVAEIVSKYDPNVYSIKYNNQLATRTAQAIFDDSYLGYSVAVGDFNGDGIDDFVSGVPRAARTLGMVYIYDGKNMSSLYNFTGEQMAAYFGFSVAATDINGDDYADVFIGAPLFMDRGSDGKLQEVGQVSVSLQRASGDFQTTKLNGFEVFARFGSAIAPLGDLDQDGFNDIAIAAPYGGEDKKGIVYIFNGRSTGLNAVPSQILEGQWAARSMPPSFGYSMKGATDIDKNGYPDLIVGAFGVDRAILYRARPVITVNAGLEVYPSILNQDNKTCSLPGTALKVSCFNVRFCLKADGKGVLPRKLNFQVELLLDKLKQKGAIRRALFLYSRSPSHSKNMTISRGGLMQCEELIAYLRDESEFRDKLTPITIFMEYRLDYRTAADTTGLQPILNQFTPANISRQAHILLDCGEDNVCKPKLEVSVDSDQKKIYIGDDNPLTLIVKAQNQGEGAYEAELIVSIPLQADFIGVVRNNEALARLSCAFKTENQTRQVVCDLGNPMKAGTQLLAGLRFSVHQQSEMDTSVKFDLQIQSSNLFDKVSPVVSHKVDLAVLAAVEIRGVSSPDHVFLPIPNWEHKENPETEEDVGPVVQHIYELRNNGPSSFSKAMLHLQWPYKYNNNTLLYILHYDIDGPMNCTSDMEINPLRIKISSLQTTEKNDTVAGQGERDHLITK
T1 sequence (P06756 891-1048 partner limits assumed): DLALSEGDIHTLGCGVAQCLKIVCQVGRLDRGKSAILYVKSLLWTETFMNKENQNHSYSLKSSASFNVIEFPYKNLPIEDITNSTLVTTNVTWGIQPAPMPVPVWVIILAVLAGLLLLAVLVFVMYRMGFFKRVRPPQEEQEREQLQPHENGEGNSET
T1 sequence (P05106 27-788): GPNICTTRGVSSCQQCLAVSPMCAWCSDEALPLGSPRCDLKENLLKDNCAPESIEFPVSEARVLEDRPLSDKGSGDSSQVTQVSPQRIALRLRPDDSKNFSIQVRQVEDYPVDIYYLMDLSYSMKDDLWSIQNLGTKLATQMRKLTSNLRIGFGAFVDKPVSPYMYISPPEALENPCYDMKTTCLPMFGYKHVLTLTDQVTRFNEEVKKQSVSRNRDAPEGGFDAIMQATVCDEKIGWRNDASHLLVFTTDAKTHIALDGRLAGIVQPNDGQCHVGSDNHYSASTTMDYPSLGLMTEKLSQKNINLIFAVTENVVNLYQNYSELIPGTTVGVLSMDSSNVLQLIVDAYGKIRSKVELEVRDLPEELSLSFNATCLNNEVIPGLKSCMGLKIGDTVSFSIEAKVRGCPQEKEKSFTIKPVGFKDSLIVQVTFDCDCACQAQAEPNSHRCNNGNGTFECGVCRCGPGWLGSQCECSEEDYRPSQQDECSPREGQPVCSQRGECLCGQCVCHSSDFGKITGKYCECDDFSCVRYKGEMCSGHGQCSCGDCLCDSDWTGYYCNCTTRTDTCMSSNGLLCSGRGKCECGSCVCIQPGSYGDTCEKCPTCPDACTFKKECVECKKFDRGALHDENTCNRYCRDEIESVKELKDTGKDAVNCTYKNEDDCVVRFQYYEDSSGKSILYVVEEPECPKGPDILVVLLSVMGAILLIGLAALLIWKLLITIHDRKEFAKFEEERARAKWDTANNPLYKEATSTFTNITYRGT

| Substance | Bmax ([1]; Activating antibody AP5) [units] | Bmax ([1]; No Treatment) [units] | affinity/avidity of αvβ3 for ligand, fold lower than that for aPB ([1]; unstimulated αvβ3-CHO cells) | coating concentration at half-maximal adhesion ([2]; no additive, 90 min at 37° C.) | coating amount at half-maximal adhesion ([2]; αvβ3 activated by AP5) | aPB binding on a per receptor basis (mfi of aPB binding divided by mfi of SSA6 binding) ([1]; AP5-treated αvβ3-CHO cells, 75 nM aPB) | binding to platelets [3] |
| --- | --- | --- | --- | --- | --- | --- | --- |
| Fibrinogen: Purified human fibrinogen labeled with FITC | 77 ± 6 | 126 ± 74 | approximately 15 fold | – | – | – | – |
| Penton Base: Recombinant multivalent penton base coat protein from adenovirus type 2, baculovirus-expressed | 69 ± 5 | 80 ± 4 | – | 30-40 ng/well | approximately 5 ng of penton base/well | – | – |
| aPB: Penton base conjugated to Alexa-488 | – | – | – | – | – | 0.034±0.002 | neither aPB nor WOW-1 Fab bound detectably |
